Entries after “also recorded” stand apart in the source; their conditions may differ.
Columns and labels:
[1] = test system: human umbilical vein endothelial cells (HUVEC); experiment: α-thrombin-induced calcium mobilization in HUVEC; assay type: cell-based
Procedure: (§1) A variation of the calcium mobilization assay uses fibroblasts (which express a single receptor for thrombin, PAR 1), umbilical vein endothelial cells, or other cells which express the cloned thrombin receptor, and which grow in monolayers on the bottom of plastic wells.
(§2) Fibroblasts or endothelial cells were grown in 24-96 well plates and loaded with the fluorescent Ca^2+ indicator fura-2 acetyloxymethylester (5 μM, Molecular Probes Inc.) by incubation for 60 min. in HEPES-Tyrode's buffer at 37° C. After washing the cells, the fluorescence of the cells was monitored on a thermostatically controlled heated pad at 37° C. for 1 min, then the cells were incubated with α-thrombin (1 to 5 nM) in the absence or presence of a BK analog. Fluorescence was detected by a Perkin-Elmer LS-50B Luminescence Spectrofluorometer. Excitation was measured at 340 and 380 nm wavelength and emission was assessed at 510 nm. The cytosolic Ca^2+ levels were determined as described above. The Rmax value was determined using 10 mM Ca^2+ in the presence of 20 μM Ionophor A23187; Rmin was determined in the presence of 20 mM EDTA.
(§3) The ability of BK analogs to inhibit α-thrombin-induced calcium mobilization in fibroblasts and human umbilical vein endothelial cells (HUVEC) was assayed as described in Example 1C.

[2] = test system: α-thrombin binding to platelets; experiment: 125I-α-thrombin binding to platelets; details: HK, LK, domain 3: molar excess
[3] = test system: fibroblasts (thrombin receptor, PAR 1); experiment: α-thrombin-induced calcium mobilization in fibroblasts; assay type: cell-based
Procedure: as §1, §2, §3

B1: HK: human high molecular weight kininogen (protein, UniProt P01042 19-644, looked up)
Kininogen-1: QESQSEEIDCNDKDLFKAVDAALKKYNSQNQSNNQFVLYRITEATKTVGSDTFYSFKYEIKEGDCPVQSGKTWQDCEYKDAAKAATGECTATVGKRSSTKFSVATQTCQITPAEGPVVTAQYDCLGCVHPISTQSPDLEPILRHGIQYFNNNTQHSSLFMLNEVKRAQRQVVAGLNFRITYSIVQTNCSKENFLFLTPDCKSLWNGDTGECTDNAYIDIQLRIASFSQNCDIYPGKDFVQPPTKICVGCPRDIPTNSPELEETLTHTITKLNAENNATFYFKIDNVKKARVQVVAGKKYFIDFVARETTCSKESNEELTESCETKKLGQSLDCNAEVYVVPWEKKIYPTVNCQPLGMISLMKRPPGFSPFRSSRIGEIKEETTVSPPHTSMAPAQDEERDSGKEQGHTRRHDWGHEKQRKHNLGHGHKHERDQGHGHQRGHGLGHGHEQQHGLGHGHKFKLDDDLEHQGGHVLDHGHKHKHGHGHGKHKNKGKKNGKHNGWKTEHLASSSEDSTTPSAQTQEKTEGPTPIPSLAKPGVTVTFSDFQDSDLIATMMPPISPAPIQSDDDWIPDIQIDPNGLSFNPISDFPDTTSPKCPGRPWKSVSEINPTTQMKESYYFDLTDGLS
modifications: high molecular weight kininogen
inhibition of α-thrombin-induced calcium mobilization in endothelial cells (FIG. 6) [1]: inhibited calcium mobilization; also recorded: inhibition
inhibition of 125-α-thrombin binding to platelets [2]: inhibit
inhibition of α-thrombin-induced calcium mobilization in fibroblasts (FIG. 5) [3]: inhibited calcium mobilization; also recorded: inhibition

Source: US6982249B1, “Bradykinin analogs as selective inhibitors of cell activation” (The Regents of the University of Michigan, priority 1997, dated 2006)
